Patent US20030138839A1

Target: human MDM2 (human) (UniProt Q00987)
Test: cell-based or functional assay

Chain of human MDM2 (human) (Q00987 whole entry): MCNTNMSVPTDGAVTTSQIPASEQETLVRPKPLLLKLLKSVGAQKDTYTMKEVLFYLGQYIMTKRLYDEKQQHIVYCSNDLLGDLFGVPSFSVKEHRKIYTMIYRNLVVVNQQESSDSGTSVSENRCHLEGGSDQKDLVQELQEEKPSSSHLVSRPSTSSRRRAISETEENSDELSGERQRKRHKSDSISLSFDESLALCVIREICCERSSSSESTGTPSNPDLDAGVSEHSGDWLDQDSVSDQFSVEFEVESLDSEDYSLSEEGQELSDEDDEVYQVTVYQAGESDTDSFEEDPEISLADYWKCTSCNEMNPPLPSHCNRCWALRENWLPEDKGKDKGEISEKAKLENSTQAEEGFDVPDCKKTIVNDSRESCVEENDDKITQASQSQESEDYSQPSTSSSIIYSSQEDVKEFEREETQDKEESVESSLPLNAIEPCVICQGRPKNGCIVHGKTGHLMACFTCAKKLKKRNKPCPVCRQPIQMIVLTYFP

Row | MDM2 half-life after cycloheximide (Western blot); approximately 15 min without TSG101 co-expression [min] | reduction of the p53 level expressed from a transfected construct in Saos-2 cells (Western blot, relative to alpha-tubulin) [%] | Substance
1 | 28 |  | human TSG101 protein
2 |  | 70 | HA-tagged human TSG101
